B1: Hammerhead Ribozyme (parent)
chain: ACCGGAUGUGCUUUCCGGUCUGAUGAGUCCGUGAGGACGAAACAG

The data set covers variants of B1. Briefly: self-cleavage, relative activity (ratio to wild type); higher = more cleavage; co-transcriptional.
Consider ACCGGAUGUGCUGUGCGGUCUGAUGAGUCCGUGAGGACGAAACAG, for which the self-cleavage was 0.715.
As for ACCGGAUGUGCUGUACGGUCUGAUGAGUCCGUGAGGACGAAACAG, the figure is 0.701.
ACCGGAUGUGCUGUUCGGUCUGAUGAGUCCGUGAGGACGAAACAG: the self-cleavage is 0.763.
Regarding ACCGGAUGUGCUCUCCGGUCAGAUGAGUCCGUGAGGACGAAACAG, the self-cleavage was 0.754.
As for ACCGGAUGUGCUCUCCGGUCGGAUGAGUCCGUGAGGACGAAACAG, the self-cleavage was 0.864.
As to ACCGGAUGUGCUCUCCGGUCCGAUGAGUCCGUGAGGACGAAACAG, the self-cleavage was 1.23.
As to ACCGGAUGUGCUGUCCGGUCUGAUGAGUCCGUGAGGACGAAACAG, the self-cleavage was 0.924.
For ACCGGAUGUGCUGUCCGGUCUGAUGAGUCCGUGAGGACGAAACGG the value was 1.7; for ACCGGAUGUGCUGUCCGGUCUGAUGAGUCCGUGAGGACGAAACCG, 0.567.
For ACCGGAUGUGCUGUCCGGUCUGAUGAGUCCGUGAGGACGAAACUG the value was 0.644; for ACCGGAUGUGCUCUCCGGUCUGAUGAGUCCGUGAGGACGAAACAA, 0.878.
With ACCGGAUGUGCUCUCCGGUCUGAUGAGUCCGUGAGGACGAAACAU, the self-cleavage amounted to 0.965.
With ACCGGAUGUGCUCUCCGGUCUGAUGAGUCCGUGAGGACGAAACAC, the self-cleavage is 0.743.
As for ACCGGAUGUGCUCUCCGGUCUGAUGAGUCCGUGACGACGAAACAG, the self-cleavage was 0.774.
As for ACCGGAUGUGCUCUCCGGUCUGAUGAGUCCGUGAUGACGAAACAG, the figure is 0.744.
As to ACCGGAUGUGCUCUCCGGUCUGAUGAGUCCGUGAAGACGAAACAG, the self-cleavage stood at 0.552.
For ACCGGAUGUGCUGUCCGGUCUGAUGCGUCCGUGAGGACGAAACAG the value was 0.383; for ACCGGAUGUGCUGUCCGGUCUGAUGGGUCCGUGAGGACGAAACAG, 0.301.
As for ACCGGAUGUGCUGUCCGGUCUGAUGUGUCCGUGAGGACGAAACAG, the figure is 0.678.
With ACCGGAUGUGCUCUCCGGUAUGAUGAGUCCGUGAGGACGAAACAG, the self-cleavage was 0.573.
For ACCGGAUGUGCUCUCCGGUGUGAUGAGUCCGUGAGGACGAAACAG the value was 0.293; for ACCGGAUGUGCUCUCCGGUUUGAUGAGUCCGUGAGGACGAAACAG, 0.405.
Turning to ACCGGAUGUGCUGUCCGGUCUGAUGAGUCCGUGAGGACGUAACAG, the self-cleavage worked out at 0.303.
Turning to ACCGGAUGUGCUGUCCGGUCUGAUGAGUCCGUGAGGACGGAACAG, the self-cleavage turned out to be 0.281.
Turning to ACCGGAUGUGCUGUCCGGUCUGAUGAGUCCGUGAGGACGCAACAG, the self-cleavage turned out to be 0.454.
For ACCGGAUGUGCUCUCCGGUCUGAUGAGUCCGUGAGGACGAAAAAG the value was 0.35; for ACCGGAUGUGCUCUCCGGUCUGAUGAGUCCGUGAGGACGAAAUAG, 0.499; for ACCGGAUGUGCUCUCCGGUCUGAUGAGUCCGUGAGGACGAAAGAG, 0.278.
Turning to ACCGGAUGUGCUCUCCGGUCUGAUGACUCCGUGAGGACGAAACAG, the self-cleavage amounted to 0.985.
As for ACCGGAUGUGCUCUCCGGUCUGAUGAAUCCGUGAGGACGAAACAG, the figure is 1.09.
As for ACCGGAUGUGCUCUCCGGUCUGAUGAUUCCGUGAGGACGAAACAG, the figure is 0.673; as for ACCGGAUGUGCUGUCCGGUCUGAUGAGUCCGUGAGGACGAUACAG, 0.272; as for ACCGGAUGUGCUGUCCGGUCUGAUGAGUCCGUGAGGACGAGACAG, 0.423.
For ACCGGAUGUGCUGUCCGGUCUGAUGAGUCCGUGAGGACGACACAG the value was 0.348; for ACCGGAUGUGCUCUCCGGUCUGAAGAGUCCGUGAGGACGAAACAG, 1.64; for ACCGGAUGUGCUCUCCGGUCUGACGAGUCCGUGAGGACGAAACAG, 1.31.
Consider ACCGGAUGUGCUCUCCGGUCUGAGGAGUCCGUGAGGACGAAACAG, for which the self-cleavage came out at 0.837.
For ACCGGAUGUGCUGUCCGGUCUGAUGAGUCCGUGGGGACGAAACAG the value was 0.886; for ACCGGAUGUGCUGUCCGGUCUGAUGAGUCCGUGCGGACGAAACAG, 0.79.
As for ACCGGAUGUGCUGUCCGGUCUGAUGAGUCCGUGUGGACGAAACAG, the figure is 0.976; as for ACCGGAUGUGCUCUCCGAUCUGAUGAGUCCGUGAGGACGAAACAG, 0.955; as for ACCGGAUGUGCUCUCCGCUCUGAUGAGUCCGUGAGGACGAAACAG, 0.842.
For ACCGGAUGUGCUCUCCGUUCUGAUGAGUCCGUGAGGACGAAACAG the value was 0.933.
Regarding ACCGGAUGUGCUGUCCGGUCUGAUGAGUACGUGAGGACGAAACAG, the self-cleavage was found to be 0.595.
Consider ACCGGAUGUGCUGUCCGGUCUGAUGAGUGCGUGAGGACGAAACAG, for which the self-cleavage was 0.581.
For ACCGGAUGUGCUGUCCGGUCUGAUGAGUUCGUGAGGACGAAACAG the value was 0.82; for ACCGGAUGUGCUGUCCGGUCUGCUGAGUCCGUGAGGACGAAACAG, 0.356; for ACCGGAUGUGCUGUCCGGUCUGGUGAGUCCGUGAGGACGAAACAG, 0.368.
As to ACCGGAUGUGCUGUCCGGUCUGUUGAGUCCGUGAGGACGAAACAG, the self-cleavage was found to be 0.405.
On to ACCGGAUGUGCUGUCCGGUCUGAUGAGUCCGUGAGGACGAAUCAG, for which the self-cleavage is 0.333.
For ACCGGAUGUGCUGUCCGGUCUGAUGAGUCCGUGAGGACGAACCAG, the self-cleavage was found to be 0.276.
For ACCGGAUGUGCUGUCCGGUCUGAUGAGUCCGUGAGGACGAAGCAG the value was 0.316.
As for ACCGGAUGUGCUCUCCGGUCUGAUGAGUCCGUGAGGAAGAAACAG, the figure is 0.601; as for ACCGGAUGUGCUCUCCGGUCUGAUGAGUCCGUGAGGAUGAAACAG, 1.11.
As for ACCGGAUGUGCUCUCCGGUCUGAUGAGUCCGUGAGGAGGAAACAG, the self-cleavage was determined as 0.458.
For ACCGGAUGUGCUCUCCGGUCUGAUGAGUCCAUGAGGACGAAACAG, the self-cleavage worked out at 1.04.
As for ACCGGAUGUGCUCUCCGGUCUGAUGAGUCCUUGAGGACGAAACAG, the figure is 1.22; as for ACCGGAUGUGCUCUCCGGUCUGAUGAGUCCCUGAGGACGAAACAG, 1.13; as for ACCGGAUGUGCUCUCCGGUCUGAUGAGUCCGUGAGCACGAAACAG, 0.336.
With ACCGGAUGUGCUCUCCGGUCUGAUGAGUCCGUGAGUACGAAACAG, the self-cleavage was determined as 0.598.
With ACCGGAUGUGCUCUCCGGUCUGAUGAGUCCGUGAGAACGAAACAG, the self-cleavage amounted to 0.701.
As for ACCGGAUGUGCUCUCCGGGCUGAUGAGUCCGUGAGGACGAAACAG, the figure is 0.311; as for ACCGGAUGUGCUCUCCGGCCUGAUGAGUCCGUGAGGACGAAACAG, 0.877; as for ACCGGAUGUGCUCUCCGGACUGAUGAGUCCGUGAGGACGAAACAG, 0.351.
As for ACCGGAUGUGCUCUCCGGUCUGAUUAGUCCGUGAGGACGAAACAG, the figure is 0.367.
As for ACCGGAUGUGCUCUCCGGUCUGAUAAGUCCGUGAGGACGAAACAG, the figure is 0.395; as for ACCGGAUGUGCUCUCCGGUCUGAUCAGUCCGUGAGGACGAAACAG, 0.264.
As for ACCGGAUGUGCUGUCCGGUAUGAUGAGUCCGUGAGGACGAAACAG, the self-cleavage worked out at 0.374.
Consider ACCGGAUGUGCUGUCCGGUUUGAUGAGUCCGUGAGGACGAAACAG, for which the self-cleavage was determined as 0.435.
Consider ACCGGAUGUGCUGUCCGGUGUGAUGAGUCCGUGAGGACGAAACAG, for which the self-cleavage amounted to 0.244.
In the case of ACCGGAUGUGCUCUCCGGUCUGAUGAGUCCGCGAGGACGAAACAG, the self-cleavage amounted to 1.11.
For ACCGGAUGUGCUCUCCGGUCUGAUGAGUCCGGGAGGACGAAACAG, the self-cleavage came to 0.808.
For the variant ACCGGAUGUGCUCUCCGGUCUGAUGAGUCCGAGAGGACGAAACAG, the self-cleavage came out at 0.668.
For ACCGGAUGUGCUGUCCGGUCUGAUGAGUCUGUGAGGACGAAACAG, the self-cleavage worked out at 0.786.
As for ACCGGAUGUGCUGUCCGGUCUGAUGAGUCAGUGAGGACGAAACAG, the figure is 0.933; as for ACCGGAUGUGCUGUCCGGUCUGAUGAGUCGGUGAGGACGAAACAG, 0.593; as for ACCGGAUGUGCUCUCUGGUCUGAUGAGUCCGUGAGGACGAAACAG, 0.976.
Turning to ACCGGAUGUGCUCUCGGGUCUGAUGAGUCCGUGAGGACGAAACAG, the self-cleavage is 0.666.
In the case of ACCGGAUGUGCUCUCAGGUCUGAUGAGUCCGUGAGGACGAAACAG, the self-cleavage worked out at 1.05.
As for ACCGGAUGUGCUCUCCUGUCUGAUGAGUCCGUGAGGACGAAACAG, the figure is 0.884; as for ACCGGAUGUGCUCUCCCGUCUGAUGAGUCCGUGAGGACGAAACAG, 0.573; as for ACCGGAUGUGCUCUCCAGUCUGAUGAGUCCGUGAGGACGAAACAG, 0.809.
As for ACCGGAUGUGCUGUCCGGUCUGAUGAGUCCGUGAGGACGAAAGAG, the figure is 0.335; as for ACCGGAUGUGCUGUCCGGUCUGAUGAGUCCGUGAGGACGAAAAAG, 0.369; as for ACCGGAUGUGCUCUCCGGUCUGAUGAGGCCGUGAGGACGAAACAG, 0.935.
As for ACCGGAUGUGCUCUCCGGUCUGAUGAGCCCGUGAGGACGAAACAG, the figure is 1.29.
On to ACCGGAUGUGCUCUCCGGUCUGAUGAGACCGUGAGGACGAAACAG, for which the self-cleavage was determined as 0.739.
As for ACCGGAUGUGCUCUCCGGUCUGAUGAGUCGGUGAGGACGAAACAG, the figure is 0.956; as for ACCGGAUGUGCUCUCCGGUCUGAUGAGUCUGUGAGGACGAAACAG, 1.24.
As for ACCGGAUGUGCUCUCCGGUCUGAUGAGUCAGUGAGGACGAAACAG, the self-cleavage was determined as 1.54.
As for ACCGGAUGUGCUCUCCGGUCUGAUGAGUCCGUCAGGACGAAACAG, the figure is 0.889; as for ACCGGAUGUGCUCUCCGGUCUGAUGAGUCCGUAAGGACGAAACAG, 1.37.
Regarding ACCGGAUGUGCUCUCCGGUCUGAUGAGUCCGUUAGGACGAAACAG, the self-cleavage amounted to 1.14.
For ACCGGAUGUGCUGUCCGGUCUGAUGAGUCCGUGAGGAUGAAACAG the value was 0.724; for ACCGGAUGUGCUGUCCGGUCUGAUGAGUCCGUGAGGAGGAAACAG, 0.531; for ACCGGAUGUGCUGUCCGGUCUGAUGAGUCCGUGAGGAAGAAACAG, 0.434.
As for ACCGGAUGUGCUGUCAGGUCUGAUGAGUCCGUGAGGACGAAACAG, the figure is 0.765.
For ACCGGAUGUGCUGUCUGGUCUGAUGAGUCCGUGAGGACGAAACAG the value was 0.836.
With ACCGGAUGUGCUGUCGGGUCUGAUGAGUCCGUGAGGACGAAACAG, the self-cleavage was found to be 0.899.
As to ACCGGAUGUGCUCCCCGGUCUGAUGAGUCCGUGAGGACGAAACAG, the self-cleavage amounted to 0.862.
As to ACCGGAUGUGCUCGCCGGUCUGAUGAGUCCGUGAGGACGAAACAG, the self-cleavage worked out at 0.364.
On to ACCGGAUGUGCUCACCGGUCUGAUGAGUCCGUGAGGACGAAACAG, for which the self-cleavage was 0.621.
Turning to ACCGGAUGUGCUCUCCGGUCUGAUGAGUCCGUGAGGACCAAACAG, the self-cleavage was determined as 0.471.
ACCGGAUGUGCUCUCCGGUCUGAUGAGUCCGUGAGGACAAAACAG: the self-cleavage worked out at 0.293.
For ACCGGAUGUGCUCUCCGGUCUGAUGAGUCCGUGAGGACUAAACAG the value was 0.419; for ACCGGAUGUGCUCUCCGGUCUAAUGAGUCCGUGAGGACGAAACAG, 0.243; for ACCGGAUGUGCUCUCCGGUCUCAUGAGUCCGUGAGGACGAAACAG, 0.247.
As for ACCGGAUGUGCUCUCCGGUCUUAUGAGUCCGUGAGGACGAAACAG, the figure is 0.346.
As to ACCGGAUGUGCUCUCCGGUCUGAUGAGUUCGUGAGGACGAAACAG, the self-cleavage stood at 0.819.
For ACCGGAUGUGCUCUCCGGUCUGAUGAGUACGUGAGGACGAAACAG the value was 0.789; for ACCGGAUGUGCUCUCCGGUCUGAUGAGUGCGUGAGGACGAAACAG, 0.723; for ACCGGAUGUGCUGUCCGGUCUGAUGAGUCCGUGAGGCCGAAACAG, 0.96.
Take ACCGGAUGUGCUGUCCGGUCUGAUGAGUCCGUGAGGUCGAAACAG: the self-cleavage is 0.625.
With ACCGGAUGUGCUGUCCGGUCUGAUGAGUCCGUGAGGGCGAAACAG, the self-cleavage was determined as 0.868.

These data come from the RNAGym collection of RNA variant scans (doi:10.7554/elife.80360).
